In patent US20240376195A1 (BEIGENE, published 2024):
Substitutions are numbered along the chain they refer to. Blank lines part the entries; values can stand above or below the binder they belong to.

Assays:
[1] = molecular target: T1, NKp30 (form in the assay not stated) (UniProt O14931 19-135, limits assumed); assay: flow cytometry, y axis NKp30 (MFI); cells not named in the legend or on the sheet
T1 construct: It is inferred from BGA1831 being an anti-NKp30 antibody
T1 sequence (looked up): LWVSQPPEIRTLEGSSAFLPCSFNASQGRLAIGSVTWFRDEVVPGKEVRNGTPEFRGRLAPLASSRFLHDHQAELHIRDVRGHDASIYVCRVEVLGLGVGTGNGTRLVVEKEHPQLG

his-tagged human NKp30 [2] = molecular target: T2, his-tagged human NKp30 (human, UniProt O14931 19-135); assay: SPR (BIAcore T-200), antibody captured by anti-mouse IgG, his-tagged human NKp30 as analyte
T2 construct: Analyte of the SPR assay; not shown: his tag
T2 sequence: T1 sequence (looked up)
Excerpt: The NKp30 antibodies with high binding activities in ELISA and FACS, as well as with potent functional activities in the cell-based assays (described in Example 1 above) were characterized for their binding kinetics by SPR assays using BIAcore™ T-200 (GE Life Sciences). Briefly, an anti-mouse IgG antibody was immobilized on an activated CM5 biosensor chip (Cat. No.: BR100530, GE Life Sciences). Purified NKp30 murine antibodies were flowed over the chip surface and captured by the anti-mouse IgG antibody. Then a serial dilution (0.098 nM to 25 nM) of his-tagged human NKp30 was flowed over the chip surface and changes in surface plasmon resonance signals were analyzed to calculate the association rates (kₒₙ) and dissociation rates (koff) by using the one-to-one Langmuir binding model (BIA Evaluation Software, GE Life Sciences). The equilibrium dissociation constant (KD) was calculated as the ratio koff/kₒₙ.

NKp30-mIgG2a = molecular target: T3, NKp30-mIgG2a (human; mouse, UniProt O14931 19-135); assay: flow cytometry blocking assay; binding of NKp30-mIgG2a to B7-H6 on HCT116/B7-H6 cells in the presence of serially diluted antibody
T3 construct: also called soluble NKp30; NKp30-mIgG2a fusion protein; not shown: Fc domain of mouse IgG2a, fused to the C-terminus of the NKp30 ECD
T3 sequence: T1 sequence (looked up)
Protocol: A schematic diagram showing the inhibition of NKp30/B7-H6 interactions by anti-NKp30 Ab. The binding of soluble NKp30 (NKp30-mIgG2a fusion protein) to B7-H6-expressing HCT116 cells (HCT116/B7-H6) was determined by flow cytometry. The blockade of NKp30/B7-H6 interaction was quantitatively measured by adding serially diluted BGA1833/IgG1. Results are shown in mean±SD of duplicates.
(Joyce et al., 2011 PNAS 108:6223-6228). […] In addition, these two residues were previously determined to be important for NKp30/B7-H6 interaction in a structural study (Li et al., J Exp Med. 2011 208:703-714). […] For this assay, a B7-H6 stably transduced cell line HCT116/B7-H6 was incubated with NKp30-mIgG2a in the presence of serially diluted BGA1833, followed by detection with […].

his-tagged human NKp30 [3] = molecular target: T2, his-tagged human NKp30; assay: SPR, antibody captured on anti-human Fc surface; NKp30 analyte not named in Example 4
Excerpt: Further engineered versions of humanized monoclonal antibodies were derived from the mutation process described as above and characterized in detail. […] For affinity determination, antibodies were captured by anti-human Fc surface, and used in the affinity assay based on surface plasmon resonance (SPR) technology. All the humanization antibodies shown above were also confirmed for functional activities on primary human immune cells isolated from healthy donors (described in Example 7 below).

[4] = molecular target: T4, full-length human NKp30 on NK92MI cells (human, UniProt O14931 19-201); assay: flow cytometry on live NK92MI cells over-expressing human NKp30, goat anti-human IgG detection
T4 construct: Full-length human NKp30 over-expressed on NK92MI cells; also called huNKp30; native NKp30
T4 sequence: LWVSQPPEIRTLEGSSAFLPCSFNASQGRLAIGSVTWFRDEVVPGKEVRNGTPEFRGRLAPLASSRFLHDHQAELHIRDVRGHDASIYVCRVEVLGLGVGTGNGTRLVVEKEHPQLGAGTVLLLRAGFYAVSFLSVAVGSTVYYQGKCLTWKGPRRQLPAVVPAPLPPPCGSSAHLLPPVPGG
Protocol: To evaluate the binding activity of anti-NKp30 antibodies to native NKp30 on living cells, NK92MI cells were transfected to over-express human NKp30. Live NK92mi/NKp30 expressing cells were seeded in 96-well plates and were incubated with a serial dilution of anti-NKp30 antibodies. Goat anti-Human IgG was used as secondary antibody to detect antibody binding to the cell surface. EC₅₀ values for dose-dependent binding to human native NKp30 were determined by fitting the dose-response data to the four-parameter logistic model with GraphPad Prism™.

EC50 [1]: 0.263 µg/mL
Kd (his-tagged human NKp30 [2]): 0.132 nM
koff (his-tagged human NKp30 [2]): 0.00021 s⁻¹
kon (his-tagged human NKp30 [2]): 1.59e+06 M⁻¹ s⁻¹
IC50 (NKp30-mIgG2a): 0.169 µg/mL
B1: mu183 (antibody, V domains shown)
VH: QVQLQQPGSVLVRPGASVKLSCKASGYTFTSSWMHWAKQRPGQGLEWIGEIHPNRDNTNYNEKFKGKATLTVDTSSSTAYVDLSSLTSEDSAVYYCARSYYDYGGAYFDSWGQGTTLTVSS
VL: QIVLTQSHKFMSTSVGDRVSITCKASQDVSTAVAWYQQKPGQSPKLLIYAASYRHIGVPDRFTGSGSGTDFTFTISSVQAEDLAVYYCQQHYSNPFTFGSGTKLEIK
notes: Murine hybridoma antibody, purified on Protein A; also called murine anti-NKp30 antibody mu183

Kd (his-tagged human NKp30 [3]): 0.143 nM
koff (his-tagged human NKp30 [3]): 0.000318 s⁻¹
kon (his-tagged human NKp30 [3]): 2.22e+06 M⁻¹ s⁻¹
EC50 [4]: 1.55 nM
B2: ch183 (antibody, V domains shown)
VH: B1 VH
VL: B1 VL
notes: not shown: human immunoglobulin kappa constant region

Kd (his-tagged human NKp30 [3]): 0.213 nM
koff (his-tagged human NKp30 [3]): 0.000331 s⁻¹
kon (his-tagged human NKp30 [3]): 1.55e+06 M⁻¹ s⁻¹
B3: BGA1832 (antibody, human IgG1, kappa, V domains shown)
VH: QVQLVQSGAEVKKPGASVKVSCKASGYTFTSSYMHWVRQAPGQGLEWMGEIHPNRDNTNYNEKFKGRVTMTVDTSTSTVYMELSSLRSEDTAVYYCARSYYDYGGAYFDAWGQGTLVTVSS
VL: DIQLTQSPSSLSASVGDRVTITCKASQDVSTAVAWYQQKPGKAPKLLIYAASYRHIGVPSRFSGSGSGTDFTLTISSLQPEDFATYYCQQHYSNPFTFGGGTKVEIKR

Kd (his-tagged human NKp30 [3]): 0.198 nM
koff (his-tagged human NKp30 [3]): 0.000377 s⁻¹
kon (his-tagged human NKp30 [3]): 1.91e+06 M⁻¹ s⁻¹
EC50 [4]: 1.26 nM
B4: BGA1831 (antibody, human IgG1, kappa, V domains shown)
VH: B3 VH with E10V, K12V, Y33W, V37A, M48I, V68A, M70L, V79A, A110S
VL: B3 VL with D1Q, Q3V, A43S, L73F
notes: also called humanized anti-NKp30 Ab BGA1831

IC50 (NKp30-mIgG2a): 0.144 µg/mL
B5: BGA1833/IgG1 (antibody)
heavy: not shown
light: QIQLTQSPSSLSASVGDRVTITCKASQDVSTAVAWYQQKPGKAPKLLIYAASYRHIGVPSRFSGSGSGTDFTLTISSLQPEDFATYYCQQHYSNPFTFGGGTKVEIKRTVAAPSVFIFPPSDEQLKSGTASVVCLLNNFYPREAKVQWKVDNALQSGNSQESVTEQDSKDSTYSLSSTLTLSKADYEKHKVYACEVTHQGLSSPVTKSFNRGEC
notes: BGA1833 with wild-type human IgG1 heavy chain; also called BGA1833 with wt IgG1
